Reference: patent US20120094909A1 (Bristol-Myers Squibb, published 2012)

How the values were obtained:
[1] = biological target: T1, human PCSK9 (proprotein convertase subtilisin kexin type 9) (human, UniProt Q8NBP7 31-692); assay: PCSK9:EGFA FRET, competitor EGFA peptide
T1 construct: immobilized directly (ProteOn), biotinylated (Octet) or in solution, according to the assay; also called hPCSK9; PCSK9-AF647 (labelled form)

[2] = biological target: T1, human PCSK9 (proprotein convertase …); assay: cell-based or functional assay

Row | Binder | EC50 [1] | LDLR Depletion (% inhibition at 75 nM) [2]
1 | 2381A08 (designed binder) MGVSDVPRDLEVVAATPTSLLISWDAPADGGYGYYRITYGETGGNSPVQEFTVPGSKGTATISGLKPGVDYTITVYAVEYDFPGAGYYHRPISINYRTEIDKPSQHHHHHH | 3.6 nM | 91.4%
2 | 2381C08 (designed binder) MGVSDVPRDLEVVAATPTSLLISWDAPADGAYGYYRITYGETGGNSPVQEFTVPVSKGTATISGLKPGVDYTITVYAVEFPYPFAGYYHRPISINYRTEIDKPSQHHHHHH | 0.7 nM | 15.3%
3 | 2382F03 (designed binder) MGVSDVPRDLEVVAATPTSLLISWDAPAADAYGYYRITYGETGGNSPVQEFTVPVSKGTATISGLKPGVDYTITVYAVEFNFPGAGYYHRPISINYRTEIDKPSQHHHHHH | 2.7 nM | 88.6%
4 | 2382F02 (designed binder) MGVSDVPRDLEVVAATPTSLLISWDAPAGGGYGYYRITYGETGGNSPVQEFTVPVSKGTATISGLKPGVDYTITVYAVEFDFPGSGYYHRPISINYRTEIDKPSQHHHHHH | 2.6 nM | -6.3%
5 | 2382E04 (designed binder) MGVSDVPRDLEVVAATPTSLLISWDAPAGGGYGYYRITYGETGGNSPVQEFTVPVSKGTATISGLKPGVDYTITVYAVEFTFPGAGYYHRPISINYRTEIDKPSQHHHHHH | 3 nM | 61.5%
6 | 2381B10 (designed binder) MGVSDVPRDLEVVAATPTSLLISWDAPAGGGYGYYRITYGETGGNSPVQEFTVPVSKGTATISGLKPGVDYTITVYAVEYNFIGAGYYHRPISINYRTEIDKPSQHHHHHH | 7.3 nM | 96.4%
7 | 2382A01 (designed binder) MGVSDVPRDLEVVAATPTSLLISWAAPAGGGYGYYRITYGETGGNSPVQEFTVPVSKGTATISGLKPGVDYTITVYAVEYDFPGAGYYHRPISINYRTEIDKPSQHHHHHH | 12.9 nM | 120%
8 | 2382H04 (designed binder) MGVSDVPRDLEVVAATPTSLLISWDAPAAGGYGYYRITYGETGGNSPVQEFTVPSSKGTATISGLKPGVDYTITVYAVEYDFPGAGYYHRPISINYRTEIDKPSQHHHHHH | 3.2 nM | 68.2%
9 | 2381H06 (designed binder) MGVSDVPRDLEVVAATPTSLLISWGDVRTNEARQGYYRITYGETGGNSPLQGFTVPGSKGTATISGLKPGVDYTITVYAVEYTYEHSGYYHRPISINYRTEIDKPSQHHHHHH | 5 nM | 53.4%
10 | 2381G06 (designed binder) MGVSDVPRDLEVVAATPTSLLISWSEKLDGKARRGYYRITYGETGGNSPVQQFTVPGSKGTATISGLKPGVDYTITVYAVEFPYDHSGYYHRPISINYRTEIDKPSQHHHHHH | 9 nM | 57.7%
11 | 2382G03 (designed binder) MGVSDVPRDLEVVAATPTSLLISWDAPAEAEAYGYYRITYGETGGNSPVQEFTVPVSKGTATISGLKPGVDYTITVYAVEYVFPGAGYYHRPISINYRTEIDKPSQHHHHHH | 2.7 nM | 77.8%
12 | 2381H01 (designed binder) MGVSDVPRDLEVVAATPTSLLISWSPRDSTGLVRRGYYRITYGETGGNSPVQQFTVPGSKGTATISGLKPGVDYTITVYAVEYPYDHSGYYHRPISINYRTEIDKPSQHHHHHH | 4 nM | 22.2%
